According to article PMC4072508, “Genome-Wide Prediction and Validation of Peptides That Bind Human Prosurvival Bcl-2 Proteins” (PLoS Computational Biology, 2014):

T1: Bfl-1, Q16548
T1 chain: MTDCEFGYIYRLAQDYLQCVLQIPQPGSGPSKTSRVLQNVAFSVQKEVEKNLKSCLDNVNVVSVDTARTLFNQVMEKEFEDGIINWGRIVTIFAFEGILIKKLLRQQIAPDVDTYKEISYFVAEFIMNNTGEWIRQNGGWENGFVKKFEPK

T2: Mcl-1, Q07820
T2 chain: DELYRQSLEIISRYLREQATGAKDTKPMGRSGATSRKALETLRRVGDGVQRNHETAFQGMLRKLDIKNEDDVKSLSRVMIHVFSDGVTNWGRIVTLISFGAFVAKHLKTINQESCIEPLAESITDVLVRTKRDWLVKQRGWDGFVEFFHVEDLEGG

T3: Bcl-w, Q92843
T3 chain: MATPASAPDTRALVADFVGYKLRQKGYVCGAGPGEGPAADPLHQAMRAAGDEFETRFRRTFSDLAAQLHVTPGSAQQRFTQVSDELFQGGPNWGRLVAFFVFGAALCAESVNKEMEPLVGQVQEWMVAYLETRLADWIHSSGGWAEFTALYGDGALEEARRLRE


What was measured:
Assay in all cases: peptide SPOT array, c-Myc-tagged receptor at 1 uM or 100 nM, anti-c-Myc-Cy3
[1] = target: Bcl-xL, Q07817
Bcl-xL, Q07817, sequence (Q07817 1-209): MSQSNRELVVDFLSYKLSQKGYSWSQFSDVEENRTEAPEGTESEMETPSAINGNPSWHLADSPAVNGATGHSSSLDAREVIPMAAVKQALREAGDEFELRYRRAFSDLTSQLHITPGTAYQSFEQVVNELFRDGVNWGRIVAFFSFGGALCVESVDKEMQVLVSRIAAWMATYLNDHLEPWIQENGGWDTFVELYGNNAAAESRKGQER

[2] = target: T1, Bfl-1, Q16548
[3] = target: T2, Mcl-1, Q07820
[4] = target: Bcl-2, P10415
Bcl-2, P10415, sequence (P10415 1-217): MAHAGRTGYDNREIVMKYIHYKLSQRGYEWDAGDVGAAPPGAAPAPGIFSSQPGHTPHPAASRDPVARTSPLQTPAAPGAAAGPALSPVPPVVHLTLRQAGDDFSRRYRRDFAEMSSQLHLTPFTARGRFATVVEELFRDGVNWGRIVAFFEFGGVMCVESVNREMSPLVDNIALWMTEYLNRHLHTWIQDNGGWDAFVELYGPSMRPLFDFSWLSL

[5] = target: T3, Bcl-w, Q92843

Row | Binder | SPOT signal as a fraction of Bim BH3's signal on the same receptor and array [1] | SPOT signal as a fraction of Bim BH3's signal on the same receptor and array [2] | SPOT signal as a fraction of Bim BH3's signal on the same receptor and array [3] | SPOT signal as a fraction of Bim BH3's signal on the same receptor and array [4] | SPOT signal as a fraction of Bim BH3's signal on the same receptor and array [5]
1 | GYPFNDVCQWFIDRLDLIFVVFDPTK [SRL] | 0.06 | 0.05 | 0.05 |  | 
2 | VKVLGKAVHSLSRIGDELYLEPLEDG [RAD9A] |  | 0.03 |  | 0.01 | 0.02
3 | SMRRNAMGVGLVFEADLFTTRHISHW [DNAH10] | 0.24 | 0.3 | 0.32 |  | 
4 | RMIVDCVSSHLKKTLDGAKTFIIFLC [BBS10] | 0.61 | 0.24 | 0.21 |  | 
5 | QCPIFRLGDIDRETGDNFSDVAIQGG [P2RX7] | 0.05 | 0.03 | 0.04 |  | 
6 | WLKGDILGEKDVNLADCLCNEDLESR | 0.07 | 0.05 | 0.04 |  | 
7 | SSTMGQVGRQLAIILDDINRRYDSEF [BAK1] | 0.02 | 0.01 | 0.01 |  | 
8 | VLLTLLVAAVDRCQGQDVQEAGSCVQ [COL2A1] | 0.05 | 0.03 | 0.05 |  | 
9 | CHGLRELALNDHLLSDELLLALSSEK [FBXL3] | 0.06 | 0.04 | 0.04 |  | 
10 | HVDGLHSSEELRNLGWDFSQEKPSTT [SETD2] |  | 0.02 |  | 0.01 | 0.02
11 | MEMYQPSAVVDQCGADSLSGDRLGCF [HDAC2] | 0.06 | 0.03 | 0.04 |  | 
12 | WLKGDILGEKLVNLADCLCNEDLESR | 0.07 | 0.06 | 0.05 |  | 
13 | KIETTPESRYLAQILDSVSLTCSTTG [VCAM1] | 0.07 | 0.04 | 0.04 |  | 
14 | MEGSDALALRLACIGDEMDVSLRAPR [BIK] |  | 0.43 |  | 0.72 | 0.74
15 | TRRSMVFARHLREVLDEFRSRHLNST [POFUT2] | 0.74 | 0.61 | 0.9 |  | 
16 | SGEFARICRDLSHIGDAVVISCAKDG [PCNA] |  | 0.03 |  | 0.01 | 0.03
17 | AGLDMNISQFLKSLGLEHLRDIFETE [TNKS] |  | 0.03 |  | 0.01 | 0.02
18 | AELEVECATQDRRFGDKLNFRQKLLN [PMAIP1] | 0.06 | 0.07 | 0.05 |  | 
19 | SQGKHGFTMADNAFGDMTNEEFRQMM [CTSL2] | 0.06 | 0.05 | 0.06 |  | 
20 | QAGPVSSGLALRKLGDRVQLLNLLVT [CCDC57] | 1.06 | 0.39 | 0.57 |  | 
21 | PFDCRDYAVVLRKYADKIYNISMKHP [FOLH1B] |  | 0.63 |  | 0.36 | 1.25
22 | VKVFGKAVQALSRISDEFWLDPSKKG [RAD9B] |  | 0.23 |  | 0.1 | 0.89
23 | ISSLDLLPYGLRYIAKVLKNSIHEKF [IQGAP2] | 0.8 | 0.64 | 0.57 |  | 
24 | TSRINEVQVNDSLLGDDLLLPAQSTL [SPHKAP] | 0.05 | 0.03 | 0.03 |  | 
25 | CGEWTRRSLHLRVLGRQLILPTDKGV [FAM149A] | 1.07 | 0.7 | 0.76 |  | 
26 | APEEDFFSIHDRIVGDWTEGLFNACG [CYBB] | 0.05 | 0.03 | 0.03 |  | 
27 | FVGYNSTGAELRHWLDMLANPRRPIA [SYT1] | 0.32 | 0.21 | 0.21 |  | 
28 | NGGLLEFHKSDQEIGDKNDHWFDIDP [DZIP3] | 0.12 | 0.04 | 0.04 |  | 
29 | LFWTPLLVVLLAGLGDTEAQQTTLHP [SGCA] | 0.06 | 0.04 | 0.04 |  | 
30 | AFGLGDLPNLLGLVLDQLGDTERKRR [ADAMTS14] | 0.07 | 0.05 | 0.06 |  | 
